Earlier results in patent publication US20250302913A1, “LACRIPEP PROMOTES NEUROREGENERATION AND MAINTAINS EPITHELIAL PROGENITOR CELL IDENTITY” (The Regents of The University of California, priority 2022, published 2025).

T1: syndecan-1 (SDC1) (Homo sapiens, UniProt P18827)
T1 sequence (P18827 23-310): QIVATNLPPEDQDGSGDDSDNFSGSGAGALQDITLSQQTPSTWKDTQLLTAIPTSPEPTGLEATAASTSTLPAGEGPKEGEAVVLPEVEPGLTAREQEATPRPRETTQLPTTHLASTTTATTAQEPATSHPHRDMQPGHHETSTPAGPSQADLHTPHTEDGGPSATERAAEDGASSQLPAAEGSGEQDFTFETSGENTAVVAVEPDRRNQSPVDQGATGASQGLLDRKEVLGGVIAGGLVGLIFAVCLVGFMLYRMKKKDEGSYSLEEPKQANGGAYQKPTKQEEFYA


Columns and labels:
rabbit corneas = conditions: after refractive surgery; cited from earlier work
human patients = conditions: controlled clinical studies; cited from earlier work
healthy rabbit model = conditions: cited from earlier work
syndecan-1 (SDC1) = target: T1, syndecan-1 (SDC1); conditions: cited from earlier work
corneal epithelial cell = conditions: in vitro; cited from earlier work

| Molecule | reinnervation of corneas (rabbit corneas) | corneal sensitivity or visual acuity versus vehicle (artificial tears) (human patients) | basal tearing (healthy rabbit model) | binding and activation of syndecan-1 (syndecan-1 (SDC1)) | corneal epithelial cell proliferation (corneal epithelial cell) |
| --- | --- | --- | --- | --- | --- |
| cenegermin: recombinant nerve growth factor | stimulated the reinnervation of rabbit corneas | failed to show significant benefit over vehicle |  |  |  |
| Lacritin: endogenous glycoprotein initially identified in tears (protein, listed as Homo sapiens, Description of sequence: Lacritin, endogenous glycoprotein initially identified in tears) MKFTTLLFLAAVAGALVYAEDASSDSTGADPAQEAGTSKPNEEISGPAEPASPPETTTTAQETSAAAVQGTAKVTSSRQELNPLKSIVEKSILLTEQALAKAGKGMHGGVPGGKQFIENGSEFAQKLLKKFSLLKPWA |  |  | promote basal tearing | bind and activate | promote corneal epithelial cell proliferation |
